We go through one molecule from patent WO2018183494A1 (dated 2018).

For this assay, the target named is T1, CD19 (UniProt P15391 20-556, limits assumed).
T1 sequence (looked up): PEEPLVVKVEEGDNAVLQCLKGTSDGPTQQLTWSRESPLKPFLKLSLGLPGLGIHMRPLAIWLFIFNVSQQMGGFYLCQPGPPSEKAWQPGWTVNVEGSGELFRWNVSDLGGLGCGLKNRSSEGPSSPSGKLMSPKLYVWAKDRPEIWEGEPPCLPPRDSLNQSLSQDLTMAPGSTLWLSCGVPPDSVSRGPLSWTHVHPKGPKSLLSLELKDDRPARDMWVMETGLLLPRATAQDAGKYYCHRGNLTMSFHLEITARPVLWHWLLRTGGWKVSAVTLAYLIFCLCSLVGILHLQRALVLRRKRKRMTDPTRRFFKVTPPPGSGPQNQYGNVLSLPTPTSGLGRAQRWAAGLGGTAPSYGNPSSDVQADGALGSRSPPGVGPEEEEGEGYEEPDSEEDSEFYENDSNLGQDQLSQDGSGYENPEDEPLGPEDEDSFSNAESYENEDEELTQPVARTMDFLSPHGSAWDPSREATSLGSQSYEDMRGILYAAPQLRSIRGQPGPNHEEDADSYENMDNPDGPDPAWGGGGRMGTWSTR
The experiment in a line: cell-based or functional assay.

B1: huB4-DGN462 (antibody, V domains shown)
VH: QVQLVQPGAEVVKPGASVKLSCKTSGYTFTSNWMHWVKQAPGQGLEWIGEIDPSDSYTNYNQNFQGKAKLTVDKSTSTAYMEVSSLRSDDTAVYYCARGSNPYYYAMDYWGQGTSVTVSS
VL: EIVLTQSPAIMSASPGERVTMTCSASSGVNYMHWYQQKPGTSPRRWIYDTSKLASGVPARFSGSGSGTDYSLTISSMEPEDAATYYCHQRGSYTFGGGTKLEIKR
For B1, the “median IC50 of cytotoxic activity (MTT assay, 72 h) in B cell lymphoma cell lines” value stood at 0.1 nM and the “median IC50 of cytotoxic activity (MTT assay, 72 h) in eight T cell-derived lymphomas with lower CD19 expression” value was 1.75 nM.
